{"source": "patent US20030232325A1", "about": "(MOUNT SINAI SCHOOL OF MEDICINE OF NEW YORK UNIVERSITY, published 2003)", "binders": {"B1": {"name": "gstRabM52WT (gst fused to amino acids 1-52, wild type, of the rabies virus M protein) (other)", "chain": "MNLLRKIVKNRRDEDTQKSSPASAPLDDDDLWLPPPEYVPLKELTGKKNMRN"}, "B2": {"name": "gstRabM202 (gst fused to amino acids 1-202, full-length, of the rabies virus M protein) (other)", "chain": "MNLLRKIVKNRRDEDTQKSSPASAPLDDDDLWLPPPEYVPLKELTGKKNMRNFCINGRVKVCSPNGYSFRILRHILKSFDEIYSGNHRMIGLVKVVIGLALSGSPVPEGLNWVYKLRRTFIFQWADSRGPLEGEELEYSQEITWDDDTEFVGLQIRVIAKQCHIQGRVWCINMNPRACQLWSDMSLQTQRSEEDKDSSLLLE"}, "B3": {"name": "WW domain from ESS 1 (other)", "chain": "TGLPTPWTVRYSKSKKREYFFNPETKHSQWEEPEG", "notes": "domain: WW"}, "B4": {"name": "gstVSVM74WT (gst fused to the N-terminal 74 amino acids of VSV (Ind.) M protein, wild type PY motif) (other)", "chain": "MSSLKKILGLKGKGKKSKKLGIAPPPYEEDTSMEYAPSAPIDKSYFGVDEMDTYDPNQLRYEKFFFTVKMTVRS"}, "B5": {"name": "gstRabM69 (gst fused to amino acids 1-69 of the rabies virus M protein) (other)", "chain": "MNLLRKIVKNRRDEDTQKSSPASAPLDDDDLWLPPPEYVPLKELTGKKNMRNFCINGRVKVCSPNGYSF"}}, "key": {"[1]": {"molecular_target": "T1, gst alone (glutathione-S-transferase expressed from pGEX-2TK) (UniProt P08515 1-218 = GST)", "T1 sequence (P08515 whole entry)": "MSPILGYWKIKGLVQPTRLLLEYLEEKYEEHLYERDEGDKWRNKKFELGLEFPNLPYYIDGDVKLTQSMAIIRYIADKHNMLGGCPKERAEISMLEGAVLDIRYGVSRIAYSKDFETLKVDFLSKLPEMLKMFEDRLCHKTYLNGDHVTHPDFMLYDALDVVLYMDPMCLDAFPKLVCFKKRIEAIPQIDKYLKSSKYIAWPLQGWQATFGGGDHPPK", "assay": "far-western blot, 32P-labelled gst probe"}, "[2]": {"molecular_target": "VSV M protein (form used not stated; discussion of Example 9, data not shown) (vesicular stomatitis virus, UniProt P03519 1-229)", "assay": "far-western blot presumably; data not shown"}, "[3]": {"molecular_target": "T1, gst alone (glutathione-S-transferase …)", "assay": "far-western blot, 32P-labelled gst probe on bacterial extract"}}, "data": [{"binder": "B1", "values": [{"measurement": "binding result", "setting": "[1]", "result": "no binding"}]}, {"binder": "B2", "values": [{"measurement": "binding result", "setting": "[1]", "result": "no binding"}]}, {"binder": "B3", "values": [{"measurement": "binding result", "setting": "[2]", "result": "no binding"}]}, {"binder": "B4", "values": [{"measurement": "binding result", "setting": "[3]", "result": "no binding"}]}, {"binder": "B5", "values": [{"measurement": "binding result", "setting": "[1]", "result": "no binding"}]}]}
